The DeepSol protein solubility set

test: soluble on expression in E. coli; label from the status in PepcDB or PDB records

| Sequence | soluble on expression in E. coli |
| --- | --- |
| MNIVLMGLPGAGKGTQAERIVEKYGIPHISTGDMFRAAMKEETPLGLEAKSYIDKGELVPDEVTIGIVRERLSKSDCERGFLLDGFPRTVAQAEALEEILEEMGRPIDYVINIQVDKEELMERLTGRRICSVCGTTYHLVFNPPKTPGICDKDGGELYQRADDNEETVTKRLEVNMKQTAPLLAFYDSKEVLVNVNGQQDIQDVFADVKVILGGLKQ | soluble |
| ISGQKEFEEKPLESKEKYQDLFNLIEQAVQIGEIVFDENGRSIDNIILDVNLAYEKHSGLRREQVIGRGFKEIFPIVEQRWLDRYGEVVRTGMGMHFEEYNASLDRWFEVFASPMGSNRFIAVFSDIT | not soluble |
| MGSDKIHHHHHHMPLLDVRNLTIELDTPHGRVRALEKVSLTLNAGEIHGLVGESGSGRSLLARAILGIPGPNWTITADRMMWDGNNLMAMSSKERRNLMGSDMAMIFQDPSGSLDPAQTVGSQLMQAMPKNPNAYFWQKRRHARLTAQKWLHKVGIKNPRQVMSSYAWELSEGECQKVMIAMAVANQPRLLIADEPTSSMELSTQAQIFRLLSQLNQLQNVSILLISHELETLAQWCDHLSVLYCGQVMESGPTDEVIKQPYHPYTKALLDNMPDYSGSGGHKAIMPTLPGSAPALQHLPIGCRLGPRCPEAQKKCVNQPNLSHIKDRYFACHFPYHGETHNDDPTA | not soluble |
| MSHHNPLVSVVIPSKNRPDLVIATLVSVIDQTYDNIEIIVVDDGSDMPLAPLLKDRFSDRVLCLRNDQSLGGAVARNRGAQSAHGDYITFLDDDDLWLPKKLEMQVDAFSKHGVDIGVVYCGFDFLCKEEIVPRQNKFHNDYDLSIAVLSGCPFGSPTPLIRKHYFDMVGGFDRELPSCQDWDLWIRLSKVCGFYPVKESLALYRVHGDQISTNLRKKIDGRKMVLAKHYDEIKNYPRVLSAHYSRIGSLCVLADEHVEARDFFSKALASNMFDGGSFVHLVLQFLCRPLEKWLIERFSVNTIDGIKVIHLEHHHHHH | not soluble |
| MSLENIEKIEVRGIRASNKANINEKRFSNAVVDAVTAEDIGKFPDSDVGQALGRVPGVTVGRTFGQGSSVSIRGTDPLMTLTTLNGQNVASTGWYDQMNVDRSFNYSMLPSELIGGMEVYKSTQANLVEGGIGGTVIVKTRKPLDMDANSVFASVKGEYGSVNEDVAPELSGLYSWKNDDETFGVLLAGSYIDREYLRTGTEADLDWGGRSSVQPSSFLQEQERTALDATVQFRPTDNLEFGAHVLSLKLGADSIGANMYIETDTNWGEGASHCKQFNAAGVCTLSVTPESDPSNVFFQNWARKGEMTSDTFELNADYKGDGFAISGVAGKTKAEGGTQMSANFGYGWWGDKFGQVKWAGTVDATGKQIDINGRDMGFTQDQLDTTVGTSTWTGIKGPNSDEETYLQLDVDFDLDFGVINKFETGVRYTQHEFEKSEYRAIYDPAKKNEFKTSDLYSGTMKLGYDGWTIPKADLDAMINATESLVDQFAYSRSAYGLIEEDNFSMYGMFSFDGEGFRGNFGLRYIQTDVTSSGHIIDNSPADILGVNQGWSEEIHSISDSYSDVLPSFNISFDLAPDLILRMSAGQAITRPNYDNLFLSTSTGYPDDRRGNEEITYGNPGLKPMKSSQADLSLEYYYGDGNLVSATYFIKDISNFIVATTQYNQQIGVVNNDLETPADNWTVNNYENAGGGEIDGIELQLNHAFENGFGVNANYTYADGTAPAEVYTDNIGMFTESSKHSANLVGYWENDDFSARAAYNWRSEYMVREYGKYYGNRMHDAFGTLDVTLGWNVTEAIALRLEIVNLTAEDDVQYGAAGVGTEVKPALQDDFPAWSFKGETTYKLGASFVFEGHHHHHH | not soluble |
| MGSDKIHHHHHHMRILEINTEKGWRGGENQTLLALIGFRKLGHEAELLCFENSALHVQAAAAGFTCHPLTSSTKSIGFLMEYGKNYSILHTQTSKQLTYCILTKPFHNSKVILSRRVDFVPKGFFTLLKYNACDGIICVSGAIEKILKQSGIKTRTVVISDCVTEKTLNKTRAQELLQKLTISGKNIIGTTAALVPHKDPVTLVNAVNILRTKRSDFVLLHFGSGPLAATIQQFITDNNLQDYYKLIGFKERVEDYFSIFNYFVMSSQEEGLGSSVLDAFVYKVPVVSTNAGGLNELVTGRGYVTEKKNAQLLAEALHTAMNSPEQNKKNVAAGYTYAVSNLSVEKIHEEHIDFFKTV | not soluble |
| MALTFTQAVSKLTSKFPHLNLVEFNGVRYPTVIVCPIHGRVTCSTFKSMLDSKSGCPKCASYGVNSHKIPEDTIDKLSKNTVLEDTVTGETLTFPSRASAARSLGINPAAITDRIKGRVHTETLLAGRYKVHICTK | not soluble |
| GPGSMKRHGVRLRRSIKETAVTIGCDEAGRGPLAGPVVGAAVSRIPVSSFNNEFDQLYEAPEQFQIFDSKSVSERQRDLVFAMITGHVDFFDIASCKKFVVHHCAGDEATSLTLSSKKLDSHVKLSKLPFKKLLSMQTPYLITYHGYNSAGNYVYFWSIGIANHTYIDEYNIYNASMNTMHRSAQSIWHMLSDARFSHEAAPRPRSSSIAQYLFSRFCTAANHDNEKRYQVPHHLELLKGATEYFDFEPIQPPLVLIDGHAVPGPSYDYFTSVRIGGDVQPIIEGDKRSLSIAAASCLAKVTRDELMNYIDALYPGYGFRDNKGYPVEQHMKYVAKNGLCPIHRKTYRPCRTVLEKGLQRK | not soluble |
| MLSAKGPQMRAFTQRVAAFSTQLQIDPIPIVFVGKGTTPRQNSLLGPNDSQYPFQGDVSFAHKPLSIRQQVENSKIERVMDDTEHNLINLLSNTNIEVDRTHLAQLKEEAMEEIQANAADVEIELSAIEAPKLLKKEMKYLFPQMETQKMNNVTVFNLTQKSEFDMKAWSEAMEEEREKLTASFIMSANAICSTLHRFGYWADFIDPSSGRPYMGDYTNHTLFETNDAYKQMGFKIEDLGCCKVLQHACWGSNAFVGTIFTDAPVDGDAVRDILKKVTQEIDE | not soluble |
| MEKPIIRGYIRENGSVGVRNYVAVIPVDDLSNSASIGVSKLIRGTVAIPHPYGRLQFGKDLDLLFHVLSGTGANPNVAAAIVIGIEENWANKVADKIAETGKPVEVFPVEGNGDLKVIEKASRKAKEFVQEASEKQRTEVDLSSLVLSIKCGESDTTSGLASNPATGYAVDKLIDYGSTVMFGETSELTGAEDIVASRIQDPVLRDKFMRIYNEYVAFIESQGVDLLGSQPTEGNIKGGLSTIEEKALGNIQKLGTKPITCVLDYLDPLGKGSSRLCFVNTSSAAAEAVTLFAAKGSVLHLFTTGQGNVVGHPIIPVVKISANPKTIATMSEHIDVDVSDLLQLKVSLKEAGERIFNYTIRVANGRLTSAEILQHEEFSPIKLYISA | not soluble |
| MPIQRREFIAAIGTGALATTAGCAQSGEGSGQTEAETEAESGGGGQPGVAGETLTLTTTTSTYDTGLLDEIHPDFEDMYGVSVDAVAQGTGAALESARNGDSDIVMVHARGLEDDFMRNGYGINRRDLMFNDFVIVGPEDDPAGIQGMGSATEALTTIAESESQFVSRGDNSGTHTKELNLWEAAGTEPGGNWYQETGTGMGEALNIANQQGAYTLSDRGTYISQRSEIDLVILVQGPIEDGPEILANPYGIMAVNPGVHDNANYDLAMAYIGWITSPGTQDAISNYQVNGEQLFFPEAVSEDPNFQQYVPEGWSSDAGE | not soluble |
| MKILLIEDNQRTQEWVTQGLSEAGYVIDAVSDGRDGLYLALKDDYALIILDIMLPGMDGWQILQTLRTAKQTPVICLTARDSVDDRVRGLDSGANDYLVKPFSFSELLARVRAQLRQHHALNSTLEISGLRMDSVSHSVSRDNISITLTRKEFQLLWLLASRAGEIIPRTVIASEIWGINFDSDTNTVDVAIRRLRAKVDDPFPEKLIATIRGMGYSFVAVKK | soluble |
| MSLRRDHTRTAQVTHVESLTNSPGVRENWPGWASPAVVERMVKSGVAKPWSHQVRAANLAHSGSNVIIATGISSGKSLGFLMPCTAAIAEGGSVLYLAPTKALAADQERKLAELAMPGVRAAVYDGDTPMEERSWARAHANYVLTNPDMLHRSIVARHPVWAGFLRRLSYVVVDEAHHYRGVFGSHVAQIMRRLRRVCGCYGAEPRFILASATTATPAETAQQLTGLPVVAVTGDGSARASLRFALVEPELTEKTGEQGAPMRRTATAVAAELLADLVSHEVSTLVFVRSRQAAELVALAAQRALADAGRPELARRVAAYRGGYLAEDRRRLEQRLRSGELLGLATTNALELGVDVSGLDAVVMAGWPGTRASLWQQAGRAGRSGRDALAVFVARDDPLDTYLVHHPDAIFGQDVEATVLDPDNPYVLAPHLCAAAEEEGHHHHHH | not soluble |
